Substrate: CC(C)(CO)[C@@H](O)C(=O)NCCC(=O)O
Experiment: Kinetic assay of pantetheine analogs as substrates of PanK
Format: biochemical
Conditions: other: compound as substrate of E. coli PanK
Protocol: As mentioned earlier, phosphorylation of the primary hydroxyl group of pantothenate by the first protein in the CoA biosynthesis pathway, PanK, is believed to be the rate limiting step in vivo. Jackowski and Rock, J. Bacteria 148:926, 1981. Due to its role as the gatekeeper of CoA biosynthesis, each of the new analogs was assayed for kinetic activity with PanK (Table 2).
The assay was performed as previously described using the prototypical bacterial PanK, CoAA from E. coli. Kumar and Aldrich, Org. Lett. 5:613, 2003. The reaction of CoAA with the natural substrate pantothenate gave values that conformed to those previously reported in the literature. Worthington and Burkart, Org. Biomol. Chem. 4:44, 2005; Strauss and Begley, J. Biol. Chem. 277:48205, 2002. […] Conversely, compounds with PEG linkers between the pantoic acid moiety and the bioorthogonal terminus were poor substrates for CoAA.

B1: E. coli PanK (CoAA) (Escherichia coli K-12) (protein)
chain: MSIKEQTLMTPYLQFDRNQWAALRDSVPMTLSEDEIARLKGINEDLSLEEVAEIYLPLSRLLNFYISSNLRRQAVLEQFLGTNGQRIPYIISIAGSVAVGKSTTARVLQALLSRWPEHRRVELITTDGFLHPNQVLKERGLMKKKGFPESYDMHRLVKFVSDLKSGVPNVTAPVYSHLIYDVIPDGDKTVVQPDILILEGLNVLQSGMDYPHDPHHVFVSDFVDFSIYVDAPEDLLQTWYINRFLKFREGAFTDPDSYFHNYAKLTKEEAIKTAMTLWKEINWLNLKQNILPTRERASLILTKSANHAVEEVRLRK
  Km: 28.56 ± 1.77 µM
  kcat: 0.521 ± 0.00967 s⁻¹
  kcat/Km: 18200 ± 680 M⁻¹ s⁻¹

— patent publication US8119364B2, “Methods for generating analogs of coenzyme A” (The Regents of the University of California, priority 2005, dated 2012)
